Where “and” joins values, the source holds several entries; their conditions need not be identical. Equal entries are not always repeated.
B1: Thermococcus kodakarensis PCNA2 (proliferating cell nuclear antigen 2, encoded by TK0582) (natural protein, UniProt Q5JFD3 1-253, looked up)
chain: MTFEIVFDSAREFESLIATLEKFFDEAVFQVNMEGIQMRAIDPSRVVLVDLNLPEMLFSKYSVESEEAIAFDLKRFLKVLKLARSRDTLVLRKGGENFLEVGLLGDENTWFKLPLIDANTPEIEIPSLPWTVKAVVLAGALKRAVKAAKLVSDSIYFMATPEKLTFKAEGNDSEVRTVLTMEDPGLLDLEHKMTKAKSAYGVAYLEDILRSLADADEVIIRFGFDIPLLLKYMVRDAGEVSFLIAPRVEEGRS
B2: Thermococcus kodakarensis PCNA1 (proliferating cell nuclear antigen 1, encoded by TK0535) (natural protein, UniProt Q5JF32 1-249, looked up)
chain: MPFEVVFDGAKEFADLIATASNLIDEAAFKFTEEGISMRAMDPSRVVLIDLNLPESIFSKYEVEEPETIGINMDQFKKILKRGKAKDTLILRKGDENFLEITFEGTAKRTFRLPLIDVEELELELPELPFTAKVVLLGEVLKEGIKDASLVSDAIKFIAKENEFTMKAEGETNEVEIRLTLEDEGLLDLEVEEETKSAYGIRYLSDMVKGIGKADEVILRFGNEMPLQMEYMIRDEGRLTFLLAPRVEE

How the values were obtained:
[1] = molecular target: Thermococcus kodakarensis replication factor C large subunit (Thermococcus kodakarensis) (UniProt Q5JHP1); assay: SEC
Thermococcus kodakarensis replication factor C large subunit (Thermococcus kodakarensis), sequence (Q5JHP1 whole entry): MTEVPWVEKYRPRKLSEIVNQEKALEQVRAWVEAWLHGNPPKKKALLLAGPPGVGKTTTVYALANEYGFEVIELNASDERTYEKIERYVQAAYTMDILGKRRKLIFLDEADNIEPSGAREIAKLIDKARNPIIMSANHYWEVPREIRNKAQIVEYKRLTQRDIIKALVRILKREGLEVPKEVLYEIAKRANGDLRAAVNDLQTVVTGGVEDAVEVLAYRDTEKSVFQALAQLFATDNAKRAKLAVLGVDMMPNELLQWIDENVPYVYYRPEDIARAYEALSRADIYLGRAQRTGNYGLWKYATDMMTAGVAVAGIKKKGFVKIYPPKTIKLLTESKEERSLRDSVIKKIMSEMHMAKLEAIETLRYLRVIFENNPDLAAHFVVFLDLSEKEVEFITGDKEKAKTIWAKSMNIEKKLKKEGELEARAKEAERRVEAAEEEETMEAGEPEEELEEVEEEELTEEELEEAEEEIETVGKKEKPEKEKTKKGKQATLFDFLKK

[2] = molecular target: the molecule itself; assay: SEC

Row | Molecule | stoichiometry N [1] | stoichiometry N [2]
1 | Thermococcus kodakarensis replication factor C small subunit (natural protein) | 4 | –
2 | B1 | – | 3 and 6
3 | B2 | – | 2 and 3

Source: paper PMC3743106 (Extremophiles : life under extreme conditions, 2013)
